Measurements published in patent US20200040059A1.
Several values for one entry are separate records, joined by “and”; a condition that tells them apart may be missing. Equal entries are not always repeated.

Experiments:
PD-L1 (human) = PD-L1 (human) (UniProt Q9NZQ7); assay: flow cytometry on HEK293 cells transfected with PD-L1
CTLA4 (human) = CTLA4 (human) (UniProt P16410); assay: flow cytometry on HEK293 cells transfected with CTLA4
CD112R (human) = CD112R (human) (UniProt Q6DKI7); assay: flow cytometry, cells expressing target, 25 nM
TIGIT (human) = target: T1, TIGIT (human) (UniProt Q495A1); assay: flow cytometry, cells expressing target, 25 nM
T1 sequence: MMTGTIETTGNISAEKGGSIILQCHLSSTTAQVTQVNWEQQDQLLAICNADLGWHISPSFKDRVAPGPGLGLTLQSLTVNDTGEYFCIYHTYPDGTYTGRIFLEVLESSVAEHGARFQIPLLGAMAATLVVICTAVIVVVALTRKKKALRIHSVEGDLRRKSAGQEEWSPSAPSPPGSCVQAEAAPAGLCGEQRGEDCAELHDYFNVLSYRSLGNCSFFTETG

CD226 (human) = target: T2, CD226 (human) (UniProt Q15762); assay: flow cytometry, cells expressing target, 25 nM
T2 sequence: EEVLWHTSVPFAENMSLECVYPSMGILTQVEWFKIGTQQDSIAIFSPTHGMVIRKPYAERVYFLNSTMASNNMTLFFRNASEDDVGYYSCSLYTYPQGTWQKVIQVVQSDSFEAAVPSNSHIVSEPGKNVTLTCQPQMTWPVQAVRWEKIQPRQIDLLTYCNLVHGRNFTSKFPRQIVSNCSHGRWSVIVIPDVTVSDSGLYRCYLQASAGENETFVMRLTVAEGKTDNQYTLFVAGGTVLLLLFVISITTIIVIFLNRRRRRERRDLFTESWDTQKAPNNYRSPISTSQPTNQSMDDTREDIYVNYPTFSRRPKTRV

[1] = target: CD112R, expressed on transfected cells (human) (UniProt Q6DKI7); assay: flow cytometry on transfected cells
[2] = target: T3, human TIGIT, full length, expressed on transfected cells (human) (UniProt Q495A1); assay: flow cytometry on transfected cells
T3 sequence: T1 sequence

[3] = target: CD96, expressed on transfected cells (UniProt P40200); assay: flow cytometry on transfected cells
[4] = target: T4, human CD226, full length, expressed on transfected cells (human) (UniProt Q15762); assay: flow cytometry on transfected cells
T4 sequence: T2 sequence

CD96 = target: T5, CD96 (UniProt P40200); assay: flow cytometry, cells expressing target, 25 nM
T5 sequence (looked up): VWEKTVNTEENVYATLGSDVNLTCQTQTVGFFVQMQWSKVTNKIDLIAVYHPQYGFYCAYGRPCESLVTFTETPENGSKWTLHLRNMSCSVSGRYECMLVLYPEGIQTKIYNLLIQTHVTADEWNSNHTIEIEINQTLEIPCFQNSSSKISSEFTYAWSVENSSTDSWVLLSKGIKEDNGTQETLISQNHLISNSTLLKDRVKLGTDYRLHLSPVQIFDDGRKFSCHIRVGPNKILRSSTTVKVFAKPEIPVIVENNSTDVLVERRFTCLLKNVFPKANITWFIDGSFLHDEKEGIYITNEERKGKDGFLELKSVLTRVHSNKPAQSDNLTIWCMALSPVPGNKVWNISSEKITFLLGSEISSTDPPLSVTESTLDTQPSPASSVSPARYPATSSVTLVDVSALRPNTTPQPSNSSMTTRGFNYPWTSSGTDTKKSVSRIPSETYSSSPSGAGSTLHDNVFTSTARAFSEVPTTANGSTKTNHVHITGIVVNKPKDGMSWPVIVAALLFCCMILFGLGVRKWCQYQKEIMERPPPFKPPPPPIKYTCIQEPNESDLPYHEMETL

[5] = target: human CD28, full-length, expressed on transfected Expi293 cells (human) (UniProt P10747); assay: flow cytometry on CD28-expressing Expi293 cells
[6] = target: human PD-L1, full length, on transfected HEK293 cells (human) (UniProt Q9NZQ7); assay: flow cytometry, Fc fusion at 22.2 nM on HEK293 cells transfected with PD-L1
[7] = target: human CD28, full length, on transfected HEK293 cells (human) (UniProt P10747); assay: flow cytometry, Fc fusion at 66.6 nM on HEK293 cells transfected with CD28

CD112R, expressed on transfected cells (human), sequence (Q6DKI7 whole entry): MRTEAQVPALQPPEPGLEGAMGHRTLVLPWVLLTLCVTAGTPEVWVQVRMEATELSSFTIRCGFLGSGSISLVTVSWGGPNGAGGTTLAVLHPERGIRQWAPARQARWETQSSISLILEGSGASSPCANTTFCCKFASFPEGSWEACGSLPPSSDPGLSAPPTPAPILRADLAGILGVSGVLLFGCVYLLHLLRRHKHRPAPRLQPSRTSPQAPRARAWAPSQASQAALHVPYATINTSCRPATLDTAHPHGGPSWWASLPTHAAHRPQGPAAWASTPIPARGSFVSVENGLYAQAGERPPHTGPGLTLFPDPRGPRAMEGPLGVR
CD112R (human), sequence (Q6DKI7 whole entry): as above
wild-type CD155 IgV-Fc, sequence (P15151 24-139 limits assumed): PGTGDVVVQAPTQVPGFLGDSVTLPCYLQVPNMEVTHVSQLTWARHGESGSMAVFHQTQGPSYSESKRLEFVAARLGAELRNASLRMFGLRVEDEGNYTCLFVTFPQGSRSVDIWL
human PD-L1, full length, on transfected HEK293 cells (human), sequence (Q9NZQ7 19-290 limits assumed): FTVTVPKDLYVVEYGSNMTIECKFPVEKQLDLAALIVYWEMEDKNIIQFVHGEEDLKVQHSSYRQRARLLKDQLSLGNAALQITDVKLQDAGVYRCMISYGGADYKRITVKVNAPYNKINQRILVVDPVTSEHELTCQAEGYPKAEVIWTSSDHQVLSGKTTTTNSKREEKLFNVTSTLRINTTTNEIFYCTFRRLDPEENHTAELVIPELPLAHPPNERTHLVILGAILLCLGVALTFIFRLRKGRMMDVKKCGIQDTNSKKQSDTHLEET
PD-L1 (human), sequence (Q9NZQ7 19-290 limits assumed): as above
CTLA4 (human), sequence (P16410 36-223 limits assumed): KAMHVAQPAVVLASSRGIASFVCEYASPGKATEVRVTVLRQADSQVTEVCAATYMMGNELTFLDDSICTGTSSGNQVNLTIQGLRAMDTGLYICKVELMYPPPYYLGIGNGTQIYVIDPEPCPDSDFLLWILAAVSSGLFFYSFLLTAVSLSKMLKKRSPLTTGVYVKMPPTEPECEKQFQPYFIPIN

Substance	MFI at 100 nM [1]	MFI at 100 nM [2]	MFI at 100 nM [3]	MFI at 100 nM [4]	also measured
CD80 IgV-Fc E35D/M47I (from UniProt P33681 35-141) (Fc fusion)					MFI at 22.2 nM (PD-L1 (human)): 150000 MFI; MFI at 66.6 nM (CTLA4 (human)): 354000 MFI
CD155 variant IgV-Fc V9A, P18S, M36T, S65G, L79P, F91S, L104T, G111R, S112I (from UniProt P15151 24-139) (Fc fusion)					MFI at 25 nM (CD112R (human)): 886 MFI; MFI at 25 nM (TIGIT (human)): 92500 MFI; MFI at 25 nM (CD226 (human)): 989 MFI
wild-type CD155 IgV-Fc (from UniProt P15151 24-139) (Fc fusion)	2170 and 1740 and 2940	2180 and 4690	1890 and 1680 and 3270	2320 and 2370 and 4690	
CD155 variant T45Q, S52Q IgV-Fc (from UniProt P15151 24-139) (Fc fusion)	1770	4810	2450	5790	
CD155 variant S52L, L104E IgV-Fc (from UniProt P15151 24-139) (Fc fusion)		4320	1830	2210	
CD155 variant S42N, L104Q, G111R IgV-Fc (from UniProt P15151 24-139) (Fc fusion)	1850	2430	1960	2310	
CD155 variant IgV-Fc D8G, V9I, V11A, P18T, T26M, S52P, L79P, F91S, G92A, T107L, V115A (from UniProt P15151 24-139) (Fc fusion)					MFI at 25 nM (CD112R (human)): 817 MFI; MFI at 25 nM (CD96): 97800 MFI; MFI at 25 nM (TIGIT (human)): 52500 MFI
CD155 variant S42A, S52L, L104E, G111R IgV-Fc (from UniProt P15151 24-139) (Fc fusion)		2260		1890	
CD155 variant S52L IgV-Fc (from UniProt P15151 24-139) (Fc fusion)	2040	2220	2040	2680	
CD155 variant L104E IgV-Fc (from UniProt P15151 24-139) (Fc fusion)	1800	3140	1560	2260	
CD80 IgV-Fc L70P/F92S (from UniProt P33681 35-141) (Fc fusion)					MFI at 22.2 nM (PD-L1 (human)): 6170 MFI; MFI at 66.6 nM (CTLA4 (human)): 4040 MFI
ICOSL variant N52S/S130G/Y152C ECD-Fc fusion (from UniProt O75144 19-256)					MFI [5]: 24 MFI
CD155 variant T45Q, S52L, V57L, L104E IgV-Fc (from UniProt P15151 24-139) (Fc fusion)	1500	2860	1530	5940	
CD155 variant IgV-Fc V10G, P18T, L72Q, L79P, F91S, T107M (from UniProt P15151 24-139) (Fc fusion)					MFI at 25 nM (CD112R (human)): 863 MFI; MFI at 25 nM (CD96): 3640 MFI; MFI at 25 nM (TIGIT (human)): 4250 MFI
CD80 IgV-Fc N55D/K86M (from UniProt P33681 35-141) (Fc fusion)					MFI at 22.2 nM (PD-L1 (human)): 5090 MFI; MFI at 66.6 nM (CTLA4 (human)): 3540 MFI
CD80 IgV-Fc M47L/V68A (from UniProt P33681 35-141) (Fc fusion)					MFI at 66.6 nM (CTLA4 (human)): 74200 MFI
CD155 variant L104Q IgV-Fc (from UniProt P15151 24-139) (Fc fusion)	2120	10300	1540	3790	
CD155 variant T45Q, S52L, L104E, G111R IgV-Fc (from UniProt P15151 24-139) (Fc fusion)	1740	2290	1580	2390	

Substance	MFI at 100 nM [1]	MFI at 100 nM [2]	MFI at 100 nM [3]	MFI at 100 nM [4]	also measured
CD155 variant S52Q IgV-Fc (from UniProt P15151 24-139) (Fc fusion)	1790	2290	1820	2020	
CD155 variant S42N, S52Q, Q62F IgV-Fc (from UniProt P15151 24-139) (Fc fusion)	1860	2400	1740	2150	
CD155 variant IgV-Fc V9L, P18L, M55V, S69L, L79P, A81E, F91S, T107M (from UniProt P15151 24-139) (Fc fusion)					MFI at 25 nM (CD112R (human)): 920 MFI; MFI at 25 nM (CD96): 67400 MFI; MFI at 25 nM (TIGIT (human)): 58700 MFI
CD155 variant T45Q, S52R, G111R IgV-Fc (from UniProt P15151 24-139) (Fc fusion)	1790	4090	2340	2080	
CD155 variant S52R IgV-Fc (from UniProt P15151 24-139) (Fc fusion)	2740	4400	4850		
CD80 IgV-Fc M43I/C82R (from UniProt P33681 35-141) (Fc fusion)					MFI at 22.2 nM (PD-L1 (human)): 7400 MFI; MFI at 66.6 nM (CTLA4 (human)): 3640 MFI
CD155 variant S52R, Q62F, L104Q, G111R IgV-Fc (from UniProt P15151 24-139) (Fc fusion)	1730	2970	2360	3170	
CD155 variant S52M, L104Q IgV-Fc (from UniProt P15151 24-139) (Fc fusion)	1710	2670	1630	2250	
CD155 variant Q62Y IgV-Fc (from UniProt P15151 24-139) (Fc fusion)	1920	2530	1830	2620	
CD155 variant Q62F IgV-Fc (from UniProt P15151 24-139) (Fc fusion)	2710	2210	2760	2570	
CD155 variant S52E IgV-Fc (from UniProt P15151 24-139) (Fc fusion)	1900	2660	1800	2600	
CD80 variant M38V/T41D/M43I/W50G/D76G/V83A/K89E/T120S/T130A ECD-Fc fusion (from UniProt P33681 35-242)					MFI [5]: 5 MFI
CD80 variant IgV-Fc H18Y/A71D/L72P/E88V (from UniProt P33681 35-141) (Fc fusion)					MFI at 22.2 nM [6]: 1080 MFI; MFI at 66.6 nM [7]: 8860 MFI
CD155 variant S42W IgV-Fc (from UniProt P15151 24-139) (Fc fusion)	2330	2430	2560	2130	
CD80 variant IgV-Fc T13R/M42V/M47I/A71D (from UniProt P33681 35-141) (Fc fusion)					MFI at 22.2 nM [6]: 1870 MFI; MFI at 66.6 nM [7]: 16700 MFI
CD80 IgV-Fc V22L/M38V/M47T/A71D/L85M (from UniProt P33681 35-141) (Fc fusion)					MFI at 22.2 nM (PD-L1 (human)): 6140 MFI; MFI at 66.6 nM (CTLA4 (human)): 175000 MFI
CD155 variant S42G IgV-Fc (from UniProt P15151 24-139) (Fc fusion)	1820	4840	1700	2450	
CD80 variant IgV-Fc E35D/I67L/A71D (from UniProt P33681 35-141) (Fc fusion)					MFI at 22.2 nM [6]: 9350 MFI; MFI at 66.6 nM [7]: 11200 MFI
